Test results reported in patent US20090226444A1 (MICROMET, published 2009).
Residue numbers refer to the chain shown, from its start.

T1: soluble human CEA antigen (sCEA; Abcam, Ltd, Cambridge UK) (human, UniProt P06731 35-685, limits assumed)
T1 construct: Bought soluble CEA; also called soluble CEA; immobilized CEA antigen
T1 sequence: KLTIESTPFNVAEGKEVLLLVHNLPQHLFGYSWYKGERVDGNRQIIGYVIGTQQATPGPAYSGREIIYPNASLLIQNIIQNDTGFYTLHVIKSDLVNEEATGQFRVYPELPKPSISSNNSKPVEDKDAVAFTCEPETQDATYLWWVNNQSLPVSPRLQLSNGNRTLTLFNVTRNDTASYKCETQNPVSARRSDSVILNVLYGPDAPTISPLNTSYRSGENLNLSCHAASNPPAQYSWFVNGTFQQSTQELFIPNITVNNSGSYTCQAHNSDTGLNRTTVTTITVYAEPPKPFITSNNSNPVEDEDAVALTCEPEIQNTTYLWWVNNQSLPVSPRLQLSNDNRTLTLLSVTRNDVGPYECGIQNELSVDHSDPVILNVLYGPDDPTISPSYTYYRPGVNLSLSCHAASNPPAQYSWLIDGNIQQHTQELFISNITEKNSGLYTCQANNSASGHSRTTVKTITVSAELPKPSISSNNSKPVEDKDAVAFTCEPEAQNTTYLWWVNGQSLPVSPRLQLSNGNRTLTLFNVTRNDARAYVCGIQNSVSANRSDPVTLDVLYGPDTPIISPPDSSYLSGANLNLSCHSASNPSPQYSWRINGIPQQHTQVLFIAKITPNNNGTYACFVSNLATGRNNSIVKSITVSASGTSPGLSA

T2: human CEA (carcinoembryonic antigen-related cell adhesion molecule 5; CEACAM5), membrane-bound on cells (human, UniProt P06731 35-685)
T2 sequence: T1 sequence

B1: murine monoclonal antibody A5B7 (antibody, V domains shown)
VH: EVQLVESGGGLVQPGGSLRLSCATSGFTFTDYYMNWVRQPPGKALEWLGFIGNKANGYTTEYSASVKGRFTISRDKSQSILYLQMNTLRAEDSATYYCTRDRGLRFYFDYWGQGTTVTVSS
VL: DIELTQSPAILSASPGEKVTMTCRASSSVTYIHWYQQKPGSSPKSWIYATSNLASGVPARFSGSGSGTSYSLTISRVEAEDAATYYCQHWSSKPPTFGGGTKLEIK
notes: The parental murine monoclonal; also called mAb A5B7
B2: IgG1 A5, derived from scFv A5 (antibody, V domains shown)
VH: EVQLVESGGGVVQPGRSLRLSCAASGFTLSTYAMHWVRQAPGKGLEWVALISNDGSNKYYADSVKGRFTISRDNSKNTLYLQMNSLRAEDTAVYYCARDRGLRFYFDYWGQGTTVTVSS
VL: QAVLTQPASLSASPGASASLTCTLRRGINVGAYSIYWYQQKPGSPPQYLLRYKSDSDKQQGSGVSSRFSASKDASANAGILLISGLQSEDEADYYCMIWHSGASAVFGGGTKLTVLG
B3: IgG1 B9, derived from scFv B9 (antibody, V domains shown)
VH: EVQLVESGGGLVQPGRSLRLSCAASGFTVSSYWMHWVRQAPGKGLEWVGFIRNKANGGTTEYAASVKGRFTISRDDSKNTLYLQMNSLRAEDTAVYYCARDRGLRFYFDYWGQGTTVTVSS
VL: B2 VL
B4: IgG1 D8, derived from scFv D8 (antibody, V domains shown)
VH: B2 VH with A97T
VL: B2 VL

How the values were obtained:
[1] = biological target: T1, soluble human CEA antigen (sCEA; Abcam, …); experiment: not described (own data)
[2] = biological target: T2, human CEA (carcinoembryonic …); experiment: cell-based or functional assay
[3] = biological target: T1, soluble human CEA antigen (sCEA; Abcam, …); experiment: cell-based or functional assay

| binding result [1] | ADCC EC50, sCEA 0 ug/ml [2] [ng/mL] | ADCC EC50 in the presence of sCEA 1 ug/ml [2] [ng/mL] | ADCC EC50 in the presence of sCEA 10 ug/ml [2] [ng/mL] | Inhibitory factor (ADCC EC50 with 1 ug/ml sCEA divided by EC50 without sCEA) [3] [fold] | Inhibitory factor (ADCC EC50 with 10 ug/ml sCEA divided by EC50 without sCEA) [3] [fold] | Binder |
| --- | --- | --- | --- | --- | --- | --- |
| binds |  |  |  |  |  | B1 |
|  | 2.7 | 4 | 2.8 | 1.5 | 1 | B2 |
|  | 4.8 | 45.3 | 53.4 | 9.4 | 11.1 | B3 |
|  | 4.4 | 14.7 | 6.3 | 3.3 | 1.4 | B4 |
